Results from patent US20240319212A1, “METHOD OF MEASURING THE ENDOCYTIC VITAMIN D STATUS” (Immundiagnostik AG, priority 2018, published 2024).

Legend:
[1] = target: vitamin D binding protein (DBP) alone, without added vitamin D metabolite (human) (UniProt P02774); experiment: MST, NT-647-labelled DBP (50 nM), megalin fragment titrated, absence of 25-OH vitamin D3; microscale thermophoresis; NT-647-labelled DBP, purified soluble M1 titrated 0.488-1000 nmol/L; absence of 25-OH vitamin D3
[2] = target: complex of vitamin D binding protein with 25-hydroxyvitamin D3 (DBP:25(OH)D3) (human) (UniProt P02774); experiment: MST, NT-647-labelled DBP (50 nM) with VD3 (50 nM), megalin fragment titrated
Chain of complex of vitamin D binding protein with 25-hydroxyvitamin D3 (DBP:25(OH)D3) (human) (P02774 17-474 limits assumed, one chain of several): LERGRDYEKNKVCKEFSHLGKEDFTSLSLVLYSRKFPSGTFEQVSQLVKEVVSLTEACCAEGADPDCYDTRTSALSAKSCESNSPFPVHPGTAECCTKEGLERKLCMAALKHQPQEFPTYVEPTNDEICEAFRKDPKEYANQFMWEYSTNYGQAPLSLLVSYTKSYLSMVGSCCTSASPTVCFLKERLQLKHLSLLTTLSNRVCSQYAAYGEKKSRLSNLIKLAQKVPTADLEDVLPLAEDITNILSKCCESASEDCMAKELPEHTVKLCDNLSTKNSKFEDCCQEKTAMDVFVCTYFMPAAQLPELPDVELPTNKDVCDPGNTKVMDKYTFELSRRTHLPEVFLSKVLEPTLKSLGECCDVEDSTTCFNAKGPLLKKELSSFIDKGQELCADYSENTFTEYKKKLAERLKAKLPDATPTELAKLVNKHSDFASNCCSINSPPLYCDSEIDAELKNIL

Chain of vitamin D binding protein (DBP) alone, without added vitamin D metabolite (human) (P02774 17-474 limits assumed): as the sequence (P02774 17-474 limits assumed, one chain of several) above

Kd [1]: 442 nM | Kd [2]: 45.6 nM
Substance: soluble recombinant megalin M1 fragment (amino acids 26 to 386 of human LRP2/megalin, C-terminal 6x His tag) (from UniProt P98164 26-386) (receptor)
